Assay results from patent US20240360246A1 (BIO Y A S, published 2024).
Changes are numbered by the printed parent chain.

Experiments:
[1] = target: T1, Human YKL-40 also known as Chitinase-3-like protein 1 (CHI3L1) (human, UniProt P36222 22-383); test: ELISA, plate coated with 2.5 µg/ml hYKL-40
T1 construct: Secreted protein purified from MG63 supernatant or purchased (Catalogue #2599-CH); also called hYKL-40
Description: A 96-well ELISA plate were coated with 2.5 μg/ml hYKL-40 or 2.5 μg/ml calmodulin as control. 0.25 μg/ml (8), […] (7), 1 μg/ml (6), 2.5 μg/ml (5), 6.25 μg/ml (4), 12.5 μg/ml (3), 15 μg/ml (2) and 20 μg/ml (1) of the antibodies B3 (SEQ ID NO: 3)-mFc or B10 (SEQ ID NO: 4)-mFc were added.

[2] = target: T1, Human YKL-40 also known as …; test: ELISA
[3] = target: T2, Murine YKL-40 (mouse, UniProt Q61362 30-389); test: ELISA
T2 construct: Purchased (Catalogue #2649-CH); also called mYKL-40; mouse YKL-40

[4] = target: T1, Human YKL-40 also known as …; test: phage ELISA
[5] = target: T1, Human YKL-40 also known as …; test: dot blot
Description: A dot blot was performed by adding 0.4 μg and 0.2 μg of hYKL-40, 0.4 μg and 0.2 μg mYKL-40, 0.4 μg and 0.2 μg of calmodulin (negative control) and PBS (negative control) onto the nitrocellulose membrane. The membrane was incubated with B3 (SEQ ID NO: 3)-hFc.
A dot blot was performed by adding 0.4 μg and 0.2 μg of hYKL-40, 0.4 μg and 0.2 μg mYKL-40, 0.4 μg and 0.2 μg of calmodulin (negative control) and PBS (negative control) onto the nitrocellulose membrane. The area that the solution penetrates was minimized. The membrane was dried for 1 h at room temperature (RT). Afterwards the membrane was blocked in PBS with 0.1% Tween overnight at 4° C. followed by three washing steps with PBS with 0.1% Tween. The membrane was incubated with B3-hFc (1 μg/mL) in blocking buffer for 2 h at RT in a shaker followed by three washing steps with PBS with 0.1% Tween. The membrane was incubated with HRP anti-human secondary antibody for 2 hours at RT in shaker followed by three washing steps with PBS with 0.1% Tween. The western blot was developed with western blotting detection reagent.

[6] = target: T1, Human YKL-40 also known as …; test: western blot
Description: For the western blot 0.5 μg hYKL-40 or mYKL-40 were loaded onto a 4-20% SurePAGE, Bis-TRIS gel. The gel was run at 120V for 70 min and afterwards the samples were transferred to a nitrocellulose membrane using iBlot system. The membrane was incubated with 1 μg/ml primary antibody B10 (SEQ ID NO: 4)-hFc.

T1 sequence (P36222 22-383 limits assumed): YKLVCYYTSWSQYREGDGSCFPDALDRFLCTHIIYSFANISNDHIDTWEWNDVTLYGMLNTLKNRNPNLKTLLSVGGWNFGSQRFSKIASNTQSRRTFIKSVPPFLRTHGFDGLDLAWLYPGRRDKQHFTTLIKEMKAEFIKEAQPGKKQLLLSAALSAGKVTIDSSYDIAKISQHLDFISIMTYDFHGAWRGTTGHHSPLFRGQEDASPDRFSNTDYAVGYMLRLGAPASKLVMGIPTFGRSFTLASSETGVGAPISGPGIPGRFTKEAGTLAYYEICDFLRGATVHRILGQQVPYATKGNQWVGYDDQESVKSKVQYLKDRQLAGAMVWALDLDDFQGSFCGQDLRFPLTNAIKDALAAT
T2 sequence (Q61362 30-389 limits assumed): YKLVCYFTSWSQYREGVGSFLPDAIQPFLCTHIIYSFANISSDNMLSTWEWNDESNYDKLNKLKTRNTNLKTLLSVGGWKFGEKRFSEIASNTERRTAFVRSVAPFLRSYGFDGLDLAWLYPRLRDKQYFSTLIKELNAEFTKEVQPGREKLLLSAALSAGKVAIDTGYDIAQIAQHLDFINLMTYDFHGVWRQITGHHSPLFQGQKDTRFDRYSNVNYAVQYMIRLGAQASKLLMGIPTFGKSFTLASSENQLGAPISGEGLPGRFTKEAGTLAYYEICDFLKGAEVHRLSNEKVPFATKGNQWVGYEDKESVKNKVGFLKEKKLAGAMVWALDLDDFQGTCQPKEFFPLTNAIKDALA

B1: B3 (SEQ ID NO: 3) fused to murine Fc (mFc) (Fc fusion)
chain: MAEVQLLESGGGLVQPGGSLRLSCAASGFRDSDEDMGWVRQAPGKGLEWVSSISAPGGSTYYADSVKGRFTISRDNSKNTLYLQMNSLRAEDTAVYYCASHYNYGHWFDYWGQGTLVTVSSAARSPPLKECPPCAAPDLLGGPSVFIFPPKIKDVLMISLSPMVTCVVVDVSEDDPDVQISWFVNNVEVHTAQTQTHREDYNSTLRVVSALPIQHQDWMSGKEFKCKVNNRALPSPIEKTISKPRGPVRAPQVYVLPPPAEEMTKKEFSLTCMITGFLPAEIAVDWTSNGRTEQNYKNTATVLDSDGSYFMYSKLRVQKSTWERGSLFACSVVHEGLHNHLTTKTISRSLGK
notes: VH domain fused to murine Fc; no linker stated; also called B3-mFc; B3 mouse
[1]
  binding result: binds

B2: B10 (SEQ ID NO: 4) fused to mFc (Fc fusion)
chain: B1 chain with P56D, G57S, H101D, G105W, H106Y
notes: VH domain fused to murine Fc; no linker stated; also called B10-mFc; B10 mouse
[1]
  binding result: binds

B3: H7 antibody comprising a VL of SEQ ID NO: 14 and a VH of SEQ ID NO: 15 fused to human Fc regions (antibody, human IgG1, kappa, V domains shown)
VH: EVQLQQSGAELVKPGASVKLSCTASGFNIKDTYMHWVKQRPEQGLEWIGRIDPANGNTIYASKFQGKATITRDTSSNTAYMQLSSLTSGDTAVYYCTRGVYYYGGSFYAMDYWGQGTSVTVSS
VL: DIQMTQSPASLSASVGETVTITCGASENIYGALNWYQRKQGKSPQLLIYGATTLADGMSSRFSGSGSGRQYSLKISSLHPDDVATYYCQNVLTTPWTFGGGTKLEIKT
notes: Chimeric mouse/human antibody; also called H7-hFc
[2]
  binding result: binds
[3]
  binding result: binds

B4: B3 predator (phage antibody clone B3) (antibody, V domains shown)
VH: EVQLLESGGGLVQPGGSLRLSCAASGFRDSDEDMGWVRQAPGKGLEWVSSISAPGGSTYYADSVKGRFTISRDNSKNTLYLQMNSLRAEDTAVYYCASHYNYGHWFDYWGQGTLVTVSS
[4]
  binding result: binds

B5: B10 predator (phage antibody clone B10) (antibody, V domains shown)
VH: B4 VH with P54D, G55S, H99D, G103W, H104Y
[4]
  binding result: binds

B6: B3 (SEQ ID NO: 3) fused to a human Fc (hFc) (Fc fusion)
chain: MAEVQLLESGGGLVQPGGSLRLSCAASGFRDSDEDMGWVRQAPGKGLEWVSSISAPGGSTYYADSVKGRFTISRDNSKNTLYLQMNSLRAEDTAVYYCASHYNYGHWFDYWGQGTLVTVSSAAVECPPCPAPPVAGPSVFLFPPKPKDTLMISRTPEVTCVVVDVSHEDPEVQFNWYVDGMEVHNAKTKPREEQFNSTFRVVSVLTVVHQDWLNGKEYKCKVSNKGLPAPIEKTISKTKGQPREPQVYTLPPSREEMTKNQVSLTCLVKGFYPSDIAVEWESNGQPENNYKTTPPMLDSDGSFFLYSKLTVDKSRWQQGNVFSCSVMHEALHNHYTQKSLSLSPGK
notes: VH domain fused to human Fc; no linker stated; also called B3-hFc
[5]
  binding result: binds

B7: B10 (SEQ ID NO: 4) fused to a human Fc (Fc fusion)
chain: B6 chain with P56D, G57S, H101D, G105W, H106Y
notes: VH domain fused to human Fc; no linker stated; also called B10-hFc
[6]
  binding result: binds
